This assay has as its target hypoglycosylated E-cadherin variant V13 (V13-flag) (human). The experiment in a line: co-IP.

“protein phosphatase 2A catalytic subunit (from UniProt A0A8I3NN81 1-306) (enzyme)” showed a fold change of co-precipitated PP2A against wild type E-cadherin of 2 fold.
